We go through one molecule from paper PMC7933954 (EMBO Molecular Medicine, 2021).

In the assay the target is T1, mouse DR5 (Mus musculus (4T1: BALB/c; MC38: …, UniProt Q9QZM4).
T1 construct: mouse DR5, endogenous on the surface of 4T1 and MC38 cells; also called muDR5; murine DR5; source: endogenous, on murine 4T1 and MC38 cells
Nature of the assay: flow cytometry on cells; antibody on murine 4T1 and MC38 cells, FACS histograms. To be noted: one partner purified. (In general: A flow cytometer gives signals particle by particle.)

T1 sequence (Q9QZM4 53-381): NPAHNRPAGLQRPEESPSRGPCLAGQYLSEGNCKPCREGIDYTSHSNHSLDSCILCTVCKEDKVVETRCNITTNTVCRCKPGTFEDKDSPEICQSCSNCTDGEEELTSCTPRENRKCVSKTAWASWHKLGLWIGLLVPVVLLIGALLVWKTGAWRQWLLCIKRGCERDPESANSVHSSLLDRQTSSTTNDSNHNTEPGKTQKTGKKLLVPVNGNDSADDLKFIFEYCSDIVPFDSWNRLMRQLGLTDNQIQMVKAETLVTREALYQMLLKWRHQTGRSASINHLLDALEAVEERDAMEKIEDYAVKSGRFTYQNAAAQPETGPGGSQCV

B1: MD5‐1 (antibody, V domains shown)
VH: QIQLQESGPGLVKPAQSLSLTCSITGFPITAGGYWWTWIRQFPGQKLEWMGYIYSSGSTNYNPSIKSRISITRDTAKNQFFLQLNSVTTEEDTAIYYCARAGTSYSGFFDSWGQGTLVTVSS
VL: DIQVTQSPSLLSASFGDKVTINCLVTQDITYYLSWYQQKSGQPPTLLIYNGNSLQSGVPSRFSGQYSGRTFTLSLSSLEPEDAGTYYCLQHYSVPFTFGGGTRLEIK
notes: heavy chain of MD5‐1; light chain of MD5‐1; for efficacy studies it is said to carry IgG1 KO‐Fc and S267E mutations; also called anti‐mouse DR5 antibody (MD5‐1); murine DR5 agonist MD5‐1
Take B1: the binding result is “binds”.
